Reference: the supplement of paper PMC9112550, “Optimization of the antimicrobial peptide Bac7 by deep mutational scanning” (BMC Biology, 2022)

What follows are sequences tested on Escherichia coli TOP10 (assay: shrunken log2 fold change of peptide-encoding DNA abundance (4.5 h post-induction vs induction); higher = less antimicrobial activity (less host growth inhibition)). Conditions: time post-induction: 4.5 h; library: site-saturation at positions 5, 18, 19, 20.
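Note: peptides expressed intracellularly from a pBAD plasmid library in pooled LB shake-flask culture, induced with 0.3% L-arabinose, DNA abundance read by NGS, three biological replicates, DESeq2 with apeglm shrinkage.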

Sequence	shrunken log2 fold change
RRIRMRPPRLPRPRPRPENYPRP	-0.0708
RRIRGRPPRLPRPRPRPKDKPRP	0.558
RRIRQRPPRLPRPRPRPLDDPRP	-0.0837
RRIRPRPPRLPRPRPRPYLTPRP	-0.689
RRIRLRPPRLPRPRPRPPRTPRP	0.591
RRIRSRPPRLPRPRPRPWICPRP	-0.15
RRIRWRPPRLPRPRPRPLIRPRP	-0.117
RRIRWRPPRLPRPRPRPNVPPRP	-0.144
RRIRNRPPRLPRPRPRPLWHPRP	-0.185
RRIRVRPPRLPRPRPRPMMHPRP	-0.365
RRIRPRPPRLPRPRPRPTQCPRP	-0.194
RRIRARPPRLPRPRPRPVVAPRP	0.604
RRIRWRPPRLPRPRPRPLRWPRP	1.08
RRIRRRPPRLPRPRPRPEYPPRP	-0.137
RRIRCRPPRLPRPRPRPHGIPRP	-0.0487
RRIRGRPPRLPRPRPRPWTYPRP	0.0864
RRIRRRPPRLPRPRPRPRWKPRP	-0.0516
RRIRMRPPRLPRPRPRPHQKPRP	-0.0408
RRIRLRPPRLPRPRPRPWHQPRP	0.0225
RRIRDRPPRLPRPRPRPTEEPRP	0.355
RRIRYRPPRLPRPRPRPAEMPRP	-1.02
RRIRRRPPRLPRPRPRPCPLPRP	0.262
RRIRNRPPRLPRPRPRPMYMPRP	-0.05
RRIRGRPPRLPRPRPRPYTMPRP	-0.342
RRIRSRPPRLPRPRPRPARDPRP	0.407

Sequence	shrunken log2 fold change
RRIRRRPPRLPRPRPRPVDKPRP	0.0213
RRIRLRPPRLPRPRPRPKSTPRP	-0.222
RRIRQRPPRLPRPRPRPVNVPRP	0.0398
RRIRVRPPRLPRPRPRPNDVPRP	-0.116
RRIRWRPPRLPRPRPRPVKEPRP	-0.0992
RRIRRRPPRLPRPRPRPKNEPRP	0.294
RRIRRRPPRLPRPRPRPEFVPRP	-0.0836
RRIRFRPPRLPRPRPRPDQDPRP	-0.00191
RRIRWRPPRLPRPRPRPKTYPRP	-0.421
RRIRGRPPRLPRPRPRPDNEPRP	1.84
RRIRPRPPRLPRPRPRPDHSPRP	-0.082
RRIRTRPPRLPRPRPRPDLLPRP	-0.263
RRIRARPPRLPRPRPRPSGIPRP	0.0311
RRIRSRPPRLPRPRPRPCLCPRP	-1.28
RRIRWRPPRLPRPRPRPAGCPRP	0.28
RRIRYRPPRLPRPRPRPVYWPRP	-0.763
RRIRFRPPRLPRPRPRPWHFPRP	-0.542
RRIRSRPPRLPRPRPRPMACPRP	-0.342
RRIRVRPPRLPRPRPRPWVFPRP	0.284
RRIRRRPPRLPRPRPRPKIDPRP	-0.000206
RRIRCRPPRLPRPRPRPSKEPRP	0.0893
RRIRSRPPRLPRPRPRPYAIPRP	-0.228
RRIRTRPPRLPRPRPRPGMQPRP	-0.0474
RRIRPRPPRLPRPRPRPLSTPRP	-0.0907
RRIRDRPPRLPRPRPRPKQEPRP	0.00491

Sequence	shrunken log2 fold change
RRIRDRPPRLPRPRPRPKTAPRP	0.00938
RRIRCRPPRLPRPRPRPLYFPRP	-0.836
RRIRYRPPRLPRPRPRPIKWPRP	0.0101
RRIRERPPRLPRPRPRPCITPRP	-0.395
RRIRIRPPRLPRPRPRPLYRPRP	-0.384
RRIRHRPPRLPRPRPRPSIWPRP	-0.244
RRIRERPPRLPRPRPRPKFWPRP	0.375
RRIRYRPPRLPRPRPRPISYPRP	-0.325
RRIRPRPPRLPRPRPRPEHPPRP	0.231
RRIRYRPPRLPRPRPRPNDTPRP	-0.921
RRIRNRPPRLPRPRPRPSPVPRP	0.00108
RRIRRRPPRLPRPRPRPWPYPRP	0.131
RRIRPRPPRLPRPRPRPFHGPRP	-0.252
RRIRRRPPRLPRPRPRPWAMPRP	-0.136
RRIRDRPPRLPRPRPRPFIGPRP	-0.158
RRIRARPPRLPRPRPRPVRIPRP	0.00598
RRIRCRPPRLPRPRPRPVKRPRP	0.0344
RRIRVRPPRLPRPRPRPHTPPRP	-0.271
RRIRWRPPRLPRPRPRPIWAPRP	0.00581
RRIRWRPPRLPRPRPRPTRQPRP	0.195
RRIRTRPPRLPRPRPRPTHYPRP	0.282
RRIRKRPPRLPRPRPRPGPDPRP	0.608
RRIRVRPPRLPRPRPRPKIFPRP	-0.00445
RRIRLRPPRLPRPRPRPDKFPRP	-0.26
RRIRIRPPRLPRPRPRPKQEPRP	0.113

Sequence	shrunken log2 fold change
RRIRHRPPRLPRPRPRPRCMPRP	-0.153
RRIRYRPPRLPRPRPRPPWWPRP	0.605
RRIRWRPPRLPRPRPRPQCDPRP	0.462
RRIRFRPPRLPRPRPRPEFRPRP	-0.0593
RRIRQRPPRLPRPRPRPLDRPRP	0.0981
RRIRYRPPRLPRPRPRPPHRPRP	-0.0877
RRIRARPPRLPRPRPRPVAQPRP	0.661
RRIRGRPPRLPRPRPRPWYYPRP	-0.148
RRIRLRPPRLPRPRPRPQGNPRP	-0.0463
RRIRMRPPRLPRPRPRPVAAPRP	2.1
RRIRSRPPRLPRPRPRPHPKPRP	0.12
RRIRARPPRLPRPRPRPTAKPRP	1.36
RRIRKRPPRLPRPRPRPKPVPRP	0.39
RRIRTRPPRLPRPRPRPQYKPRP	-1.04
RRIRMRPPRLPRPRPRPDMHPRP	1.15
RRIRCRPPRLPRPRPRPNYPPRP	-0.427
RRIRERPPRLPRPRPRPQWWPRP	0.273
RRIRRRPPRLPRPRPRPNYTPRP	-0.44
RRIRMRPPRLPRPRPRPNLEPRP	0.284
RRIRSRPPRLPRPRPRPTGCPRP	0.159
RRIRVRPPRLPRPRPRPHMFPRP	-0.199
RRIRSRPPRLPRPRPRPNRRPRP	-0.0429
RRIRHRPPRLPRPRPRPWWWPRP	0.0221
RRIRGRPPRLPRPRPRPKRWPRP	0.796
RRIRTRPPRLPRPRPRPNGNPRP	-0.302

Sequence	shrunken log2 fold change
RRIRSRPPRLPRPRPRPTVHPRP	-0.0989
RRIRQRPPRLPRPRPRPCEGPRP	-0.000921
RRIRHRPPRLPRPRPRPQKVPRP	-0.0567
RRIRFRPPRLPRPRPRPNGSPRP	0.0396
RRIRHRPPRLPRPRPRPDSAPRP	-0.216
RRIRIRPPRLPRPRPRPYLIPRP	-1.6
RRIRWRPPRLPRPRPRPYDGPRP	-0.337
RRIRERPPRLPRPRPRPGGCPRP	1.44
RRIRFRPPRLPRPRPRPRKEPRP	-0.0425
RRIRGRPPRLPRPRPRPYQQPRP	0.0771
RRIRRRPPRLPRPRPRPYISPRP	-0.485
RRIRVRPPRLPRPRPRPILVPRP	-0.00597
RRIRLRPPRLPRPRPRPSHKPRP	-0.354
RRIRPRPPRLPRPRPRPGIVPRP	-0.0451
RRIRWRPPRLPRPRPRPPARPRP	0.726
RRIRERPPRLPRPRPRPQAFPRP	-0.017
RRIRMRPPRLPRPRPRPAHVPRP	0.176
RRIRIRPPRLPRPRPRPYLPPRP	-0.206
RRIRNRPPRLPRPRPRPMQDPRP	-0.0611
RRIRPRPPRLPRPRPRPEMVPRP	0.191
RRIRCRPPRLPRPRPRPDYHPRP	-0.903
RRIRWRPPRLPRPRPRPTEQPRP	0.357
RRIRIRPPRLPRPRPRPPDSPRP	-0.0582
RRIRCRPPRLPRPRPRPEENPRP	0.602
RRIRMRPPRLPRPRPRPCTFPRP	-0.209

Sequence	shrunken log2 fold change
RRIRLRPPRLPRPRPRPYEEPRP	-0.274
RRIRPRPPRLPRPRPRPTLEPRP	0.393
RRIRTRPPRLPRPRPRPGCQPRP	-0.0154
RRIRYRPPRLPRPRPRPELKPRP	-0.162
RRIRQRPPRLPRPRPRPSRYPRP	-0.00452
RRIRLRPPRLPRPRPRPYLGPRP	-0.425
RRIRLRPPRLPRPRPRPRIAPRP	0.317
RRIRLRPPRLPRPRPRPAWDPRP	0.0108
RRIRARPPRLPRPRPRPFVFPRP	0.166
RRIRRRPPRLPRPRPRPKKVPRP	0.242
RRIRERPPRLPRPRPRPQYSPRP	-0.0489
RRIRHRPPRLPRPRPRPLHPPRP	-0.148
RRIRHRPPRLPRPRPRPVGIPRP	-0.294
RRIRHRPPRLPRPRPRPVKFPRP	-0.0191
RRIRVRPPRLPRPRPRPIAQPRP	-0.061
RRIRCRPPRLPRPRPRPLCSPRP	-0.399
RRIRPRPPRLPRPRPRPAKAPRP	-0.0289
RRIRMRPPRLPRPRPRPNHCPRP	0.0039
RRIRDRPPRLPRPRPRPEDWPRP	1.45
RRIRTRPPRLPRPRPRPFNHPRP	0.00676
RRIRYRPPRLPRPRPRPTVYPRP	-0.686
RRIRVRPPRLPRPRPRPKMDPRP	-0.093
RRIRGRPPRLPRPRPRPSPEPRP	0.498
RRIRIRPPRLPRPRPRPERNPRP	0.146
RRIRERPPRLPRPRPRPPHDPRP	0.0906
